This note sets out measurements from paper doi:10.1101/2021.03.07.433908 (bioRxiv, 2021).

This series concerns the molecule itself. Put plainly: pulsed field gradient diffusion NMR.

B1: Human αB-crystallin (natural protein)
chain: MDIAIHHPWIRRPFFPFHSPSRLFDQFFGEHLLESDLFPTSTSLSPFYLRPPSFLRAPSWFDTGLSEMRLEKDRFSVNLDVKHFSPEELKVKVLGDVIEVHGKHEERQDEHGFISREFHRKYRIPADVDPLTITSSLSSDGVLTVNGPRKQVSGPERTIPITREEKPAVTAAPKK
modifications: 15N labelled (HSQC spectra); 2H/13CH3 Ile δ1, Val γ1/γ2, Leu δ1/δ2 labelled (binding studies and diffusion analyses)
Consider B1, for which the “stoichiometry N” value was 28.
